Reference: the supplement of paper PMC5998384

Legend:
[1] = system: HeLa Kyoto; assay: solubility change mitosis vs G1/S (difference of NP-40 vs SDS log2 ratios) (log2 ratio difference); higher = more soluble in mitosis
[2] = system: HeLa Kyoto; assay: solubility in G1/S (NP-40 vs SDS abundance) (log2 ratio); higher = more soluble; conditions: cell cycle stage: G1/S
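For solubility change mitosis vs G1/S (difference of NP-40 vs SDS log2 ratios) in this document: synchronized HeLa Kyoto cells (double thymidine block for G1/S, nocodazole release for mitosis), protein amounts in NP-40 versus SDS lysates quantified by mass spectrometry, three biological replicates.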
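For solubility in G1/S (NP-40 vs SDS abundance) in this document: HeLa Kyoto cells arrested at G1/S by double thymidine block, proteins quantified by TMT10plex mass spectrometry in mild NP-40 versus SDS extracts, three biological replicates.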

Row | Sequence | solubility change mitosis (log2) [1] | solubility in G1/S (log2) [2]
1 | MDIIETAKLEEHLENQPSDPTNTYARPAEPVEEENKNGNGKPKSLSSGLRKGTKKYPDYIQIAMPTESRNKFPLEWWKTGIAFIYAVFNLVLTTVMITVVHERVPPKELSPPLPDKFFDYIDRVKWAFSVSEINGIILVGLWITQWLFLRYKSIVGRRFCFIIGTLYLYRCITMYVTTLPVPGMHFQCAPKLNGDSQAKVQRILRLISGGGLSITGSHILCGDFLFSGHTVTLTLTYLFIKEYSPRHFWWYHLICWLLSAAGIICILVAHEHYTIDVIIAYYITTRLFWWYHSMANEKNLKVSSQTNFLSRAWWFPIFYFFEKNVQGSIPCCFSWPLSWPPGCFKSSCKKYSRVQKIGEDNEKST [SGMS2] | -0.0915 | -0.197
2 | MDKNIGEQLNKAYEAFRQACMDRDSAVKELQQKTENYEQRIREQQEQLSLQQTIIDKLKSQLLLVNSTQDNNYGCVPLLEDSETRKNNLTLDQPQDKVISGIAREKLPKVRRQEVSSPRKETSARSLGSPLLHERGNIEKTFWDLKEEFHKICMLAKAQKDHLSKLNIPDTATETQCSVPIQCTDKTDKQEALFKPQAKDDINRGAPSITSVTPRGLCRDEEDTSFESLSKFNVKFPPMDNDSTFLHSTPERPGILSPATSEAVCQEKFNMEFRDNPGNFVKTEETLFEIQGIDPIASAIQNLKTTDKTKPSNLVNTCIRTTLDRAACLPPGDHNALYVNSFPLLDPSDAPFPSLDSPGKAIRGPQQPIWKPFPNQDSDSVVLSGTDSELHIPRVCEFCQAVFPPSITSRGDFLRHLNSHFNGET [TANK] | -0.0338 | -0.138
3 | MDPPAVVAESVSSLTIADAFIAAGESSAPTPPRPALPRRFICSFPDCSANYSKAWKLDAHLCKHTGERPFVCDYEGCGKAFIRDYHLSRHILTHTGEKPFVCAANGCDQKFNTKSNLKKHFERKHENQQKQYICSFEDCKKTFKKHQQLKIHQCQHTNEPLFKCTQEGCGKHFASPSKLKRHAKAHEGYVCQKGCSFVAKTWTELLKHVRETHKEEILCEVCRKTFKRKDYLKQHMKTHAPERDVCRCPREGCGRTYTTVFNLQSHILSFHEESRPFVCEHAGCGKTFAMKQSLTRHAVVHDPDKKKMKLKVKKSREKRSLASHLSGYIPPKRKQGQGLSLCQNGESPNCVEDKMLSTVAVLTLG [GTF3A] | 0.0516 | -0.869
4 | MDRFLVKGAQGGLLRKQEEQEPTGEEPAVLGGDKESTRKRPRREAPGNGGHSAGPSWRHIRAEGLDCSYTVLFGKAEADEIFQELEKEVEYFTGALARVQVFGKWHSVPRKQATYGDAGLTYTFSGLTLSPKPWIPVLERIRDHVSGVTGQTFNFVLINRYKDGCDHIGEHRDDERELAPGSPIASVSFGACRDFVFRHKDSRGKSPSRRVAVVRLPLAHGSLLMMNHPTNTHWYHSLPVRKKVLAPRVNLTFRKILLTKK [ALKBH2] | 0.0123 | 0.0785
5 | MDSLDHMLTDPLELGPCGDGHGTRIMEDCLLGGTRVSLPEDLLEDPEIFFDVVSLSTWQEVLSDSQREHLQQFLPQFPEDSAEQQNELILALFSGENFRFGNPLHIAQKLFRDGHFNPEVVKYRQLCFKSQYKRYLNSQQQYFHRLLKQILASRSDLLEMARRSGPALPFRQKRPSPSRTPEEREWRTQQRYLKVLREVKEECGDTALSSDEEDLSSWLPSSPARSPSPAVPLRVVPTLSTTDMKTADKVELGDSDLKIMLKKHHEKRKHQPDHPDLLTGDLTLNDIMTRVNAGRKGSLAALYDLAVLKKKVKEKEEKKKKKIKTIKSEAEDLAEPLSSTEGVAPLSQAPSPLAIPAIKEEPLEDLKPCLGINEISSSFFSLLLEILLLESQASLPMLEERVLDWQSSPASSLNSWFSAAPNWAELVLPALQYLAGESRAVPSSFSPFVEFKEKTQQWKLLGQSQDNEKELAALFQLWLETKDQAFCKQENEDSSDATTPVPRVRTDYVVRPSTGEEKRVFQEQERYRYSQPHKAFTFRMHGFESVVGPVKGVFDKETSLNKAREHSLLRSDRPAYVTILSLVRDAAARLPNGEGTRAEICELLKDSQFLAPDVTSTQVNTVVSGALDRLHYEKDPCVKYDIGRKLWIYLHRDRSEEEFERIHQAQAAAAKARKALQQKPKPPSKVKSSSKESSIKVLSSGPSEQSQMSLSDSSMPPTPVTPVTPTTPALPAIPISPPPVSAVNKSGPSTVSEPAKSSSGVLLVSSPTMPHLGTMLSPASSQTAPSSQAAARVVSHSGSAGLSQVRVVAQPSLPAVPQQSGGPAQTLPQMPAGPQIRVPATATQTKVVPQTVMATVPVKAQTTAATVQRPGPGQTGLTVTSLPATASPVSKPATSSPGTSAPSASTAAVIQNVTGQNIIKQVAITGQLGVKPQTGNSIPLTATNFRIQGKDVLRLPPSSITTDAKGQTVLRITPDMMATLAKSQVTTVKLTQDLFGTGGNTTGKGISATLHVTSNPVHAADSPAKASSASAPSSTPTGTTVVKVTPDLKPTEASSSAFRLMPALGVSVADQKGKSTVASSEAKPAATIRIVQGLGVMPPKAGQTITVATHAKQGASVASGSGTVHTSAVSLPSMNAAVSKTVAVASGAASTPISISTGAPTVRQVPVSTTVVSTSQAGKLPTRITVPLSVISQPMKGKSVVTAPIIKGNLGANLSGLGRNIILTTMPAGTKLIAGNKPVSFLTAQQLQQLQQQGQATQVRIQTVPASHLQQGTASGSSKAVSTVVVTTAPSPKQAPEQQ [NFRKB] | 0.184 | -0.0172
6 | MDSTKEKCDSYKDDLLLRMGLNDNKAGMEGLDKEKINKIIMEATKGSRFYGNELKKEKQVNQRIENMMQQKAQITSQQLRKAQLQVDRFAMELEQSRNLSNTIVHIDMDAFYAAVEMRDNPELKDKPIAVGSMSMLSTSNYHARRFGVRAAMPGFIAKRLCPQLIIVPPNFDKYRAVSKEVKEILADYDPNFMAMSLDEAYLNITKHLEERQNWPEDKRRYFIKMGSSVENDNPGKEVNKLSEHERSISPLLFEESPSDVQPPGDPFQVNFEEQNNPQILQNSVVFGTSAQEVVKEIRFRIEQKTTLTASAGIAPNTMLAKVCSDKNKPNGQYQILPNRQAVMDFIKDLPIRKVSGIGKVTEKMLKALGIITCTELYQQRALLSLLFSETSWHYFLHISLGLGSTHLTRDGERKSMSVERTFSEINKAEEQYSLCQELCSELAQDLQKERLKGRTVTIKLKNVNFEVKTRASTVSSVVSTAEEIFAIAKELLKTEIDADFPHPLRLRLMGVRISSFPNEEDRKHQQRSIIGFLQAGNQALSATECTLEKTDKDKFVKPLEMSHKKSFFDKKRSERKWSHQDTFKCEAVNKQSFQTSQPFQVLKKKMNENLEISENSDDCQILTCPVCFRAQGCISLEALNKHVDECLDGPSISENFKMFSCSHVSATKVNKKENVPASSLCEKQDYEAHPKIKEISSVDCIALVDTIDNSSKAESIDALSNKHSKEECSSLPSKSFNIEHCHQNSSSTVSLENEDVGSFRQEYRQPYLCEVKTGQALVCPVCNVEQKTSDLTLFNVHVDVCLNKSFIQELRKDKFNPVNQPKESSRSTGSSSGVQKAVTRTKRPGLMTKYSTSKKIKPNNPKHTLDIFFK [POLK] | 0.335 | -0.534
7 | MDTAEEDICRVCRSEGTPEKPLYHPCVCTGSIKFIHQECLVQWLKHSRKEYCELCKHRFAFTPIYSPDMPSRLPIQDIFAGLVTSIGTAIRYWFHYTLVAFAWLGVVPLTACRIYKCLFTGSVSSLLTLPLDMLSTENLLADCLQGCFVVTCTLCAFISLVWLREQIVHGGAPIWLEHAAPPFNAAGHHQNEAPAGGNGAENVAADQPANPPAENAVVGENPDAQDDQAEEEEEDNEEEDDAGVEDAADANNGAQDDMNWNALEWDRAAEELTWERMLGLDGSLVFLEHVFWVVSLNTLFILVFAFCPYHIGHFSLVGLGFEEHVQASHFEGLITTIVGYILLAITLIICHGLATLVKFHRSRRLLGVCYIVVKVSLLVVVEIGVFPLICGWWLDICSLEMFDATLKDRELSFQSAPGTTMFLHWLVGMVYVFYFASFILLLREVLRPGVLWFLRNLNDPDFNPVQEMIHLPIYRHLRRFILSVIVFGSIVLLMLWLPIRIIKSVLPNFLPYNVMLYSDAPVSELSLELLLLQVVLPALLEQGHTRQWLKGLVRAWTVTAGYLLDLHSYLLGDQEENENSANQQVNNNQHARNNNAIPVVGEGLHAAHQAILQQGGPVGFQPYRRPLNFPLRIFLLIVFMCITLLIASLICLTLPVFAGRWLMSFWTGTAKIHELYTAACGLYVCWLTIRAVTVMVAWMPQGRRVIFQKVKEWSLMIMKTLIVAVLLAGVVPLLLGLLFELVIVAPLRVPLDQTPLFYPWQDWALGVLHAKIIAAITLMGPQWWLKTVIEQVYANGIRNIDLHYIVRKLAAPVISVLLLSLCVPYVIASGVVPLLGVTAEMQNLVHRRIYPFLLMVVVLMAILSFQVRQFKRLYEHIKNDKYLVGQRLVNYERKSGKQGSSPPPPQSSQE [MARCH6] | 0.155 | -0.397
